The test system of data set [1] is ob/ob female mice. Put plainly: Treatment effects on body weight and food intake, continuous infusion by Alzet mini-osmotic pump. It is filed as in vivo. Particulars: 300 or 1000 μg/Kg/day. The method, then:
Assessment of potential treatment effect on body weight and food intake by PYY variants of the present invention is performed under blinded conditions. The test system includes 40 ob/ob female mice, each about 50 g & 12 weeks of age at study initiation, in 5 groups (n=8), housed 4 per cage.
The first week, representing the first stage of the experiment, is the first acclimatization stage, when the 12 hours light and dark cycles regime is applied at the same hours of the day (light cycle is between 6:30-18:30). The viability check and clinical signs observations are checked daily.
The second week of the experiment, is the second acclimatization stage, when the same 12 hours/12 hours light and dark cycles regime is applied. At this stage, every day at the same time each day, the following parameters are assessed: daily viability check and clinical signs observations, including for example, changes in skin, fur, eyes, mucous membranes, secretions, activity and response to handling, as well as any unusual behavior, sleep and coma; body weight measurement 3 times/week; and food consumption measurement 1 time/daily for 5 days a week.
The third stage, days 15-43 (weeks 3-6 of the experiment), is the test compound administration stage.
On day 15, an Alzet mini-osmotic pump (model 2004), is surgically inserted into each test animal, under general anesthesia. […]

Data set [2] is described as follows: In-vitro stability study in acetate buffer (Alzet pump model, HPLC). The data set is classed as physicochemical. Particulars: 20 mM acetate buffer pH 4.0, 37° C., 28 days. The method, then:
(Alzet in-vitro protocol, DURECT Corporation, Calif., USA) following the analysis of the solutions by HPLC.
In all the cases 2 or 3 different experiments were carried out.

The conditions of data set [3]: in rats, in rabbits, and in humans with Paget's disease; cited from earlier work.

Regarding “PYY variant: PYY splice variant skipping exon 3, residues 3-42, SEQ ID NO:75; lacks last Tyr, adds 7 C-terminal residues SEGPDLW”, the body weight gain result in data set [1] (28 days, versus control group) is on record as “gain significantly less weight than the control group”. In addition, the food intake result in data set [1] (especially during the first days of the study) is recorded as “significant effect of reduction in the food intake”. Further, the “Purity (%) (average ± stdev)” value in data set [2] (high dose (PYY[3-36] 10.6 mg/ml; PYY variant [3-42] 12.8 mg/ml)) was 72.3 ± 0.2%; in data set [2] (low dose (PYY[3-36] 3.3 mg/ml; PYY variant [3-42] 3.9 mg/ml)) it was 69.2 ± 0.6%.

B1: Amylin: 37-amino acid monomeric polypeptide hormone co-secreted with insulin from pancreatic beta cells (peptide, listed as Homo sapiens)
chain: MGILKLQVFLIVLSVALNHLKATPIESHQVEKRKCNTATCATQRLANFLVHSSNNFGAILSSTNVGSNTYGKRNAVEVLKREPLNYLPL
As to B1, the “lowering of plasma calcium” value in data set [3] was “up to 20%”.
